Measurements: US20190134153A1, “IMMUNOMODULATORY EFFECT OF INHALED KINASE INHIBITOR PEPTIDES IN LUNG” (MOERAE MATRIX, INC., priority 2017, published 2019)

What was measured:
Test in all cases: Kinase Profiling Assay
Type in all cases: biochemical
Conditions in all cases: 100 μM
[1] = molecular target: Ret (V804L)(h) (Homo sapiens, UniProt P07949, V804L)
[2] = molecular target: Ron(h) (Homo sapiens, UniProt Q04912)
[3] = molecular target: EGFR(T790M, L858R)(h) (Homo sapiens, UniProt P00533, L858R/T790M)
[4] = molecular target: Tie2(h) (Homo sapiens, UniProt Q02763)
Tie2(h), sequence (Q02763 23-1124): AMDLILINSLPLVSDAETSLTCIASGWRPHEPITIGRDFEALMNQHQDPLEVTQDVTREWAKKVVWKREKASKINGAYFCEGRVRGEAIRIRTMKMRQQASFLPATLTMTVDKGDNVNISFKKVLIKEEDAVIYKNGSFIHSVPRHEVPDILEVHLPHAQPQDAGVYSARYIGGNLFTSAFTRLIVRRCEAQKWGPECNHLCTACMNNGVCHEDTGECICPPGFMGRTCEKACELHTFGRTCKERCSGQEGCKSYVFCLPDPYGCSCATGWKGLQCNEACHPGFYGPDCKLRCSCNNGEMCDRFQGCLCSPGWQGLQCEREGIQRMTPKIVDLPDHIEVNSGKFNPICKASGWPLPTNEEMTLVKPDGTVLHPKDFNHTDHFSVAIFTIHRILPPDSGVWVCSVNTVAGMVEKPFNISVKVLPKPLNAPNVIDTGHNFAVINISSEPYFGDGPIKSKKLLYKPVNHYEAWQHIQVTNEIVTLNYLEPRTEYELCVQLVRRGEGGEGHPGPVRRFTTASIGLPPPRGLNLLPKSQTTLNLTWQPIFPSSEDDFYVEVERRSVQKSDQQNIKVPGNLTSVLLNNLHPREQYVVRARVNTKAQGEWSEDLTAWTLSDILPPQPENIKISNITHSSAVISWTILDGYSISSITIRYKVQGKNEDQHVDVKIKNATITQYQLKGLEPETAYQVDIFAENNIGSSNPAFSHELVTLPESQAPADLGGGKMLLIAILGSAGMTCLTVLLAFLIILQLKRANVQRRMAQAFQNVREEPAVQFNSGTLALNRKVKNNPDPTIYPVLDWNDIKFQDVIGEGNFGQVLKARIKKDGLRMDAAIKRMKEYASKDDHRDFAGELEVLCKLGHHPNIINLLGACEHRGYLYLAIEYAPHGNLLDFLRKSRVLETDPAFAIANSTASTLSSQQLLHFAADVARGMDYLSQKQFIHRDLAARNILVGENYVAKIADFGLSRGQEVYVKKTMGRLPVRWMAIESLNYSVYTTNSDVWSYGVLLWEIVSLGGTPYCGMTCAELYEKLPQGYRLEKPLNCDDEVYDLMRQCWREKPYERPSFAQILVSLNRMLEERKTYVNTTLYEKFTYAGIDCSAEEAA

[5] = molecular target: T1, Itk(h) (Homo sapiens, UniProt Q08881)
T1 sequence (Q08881 1-620): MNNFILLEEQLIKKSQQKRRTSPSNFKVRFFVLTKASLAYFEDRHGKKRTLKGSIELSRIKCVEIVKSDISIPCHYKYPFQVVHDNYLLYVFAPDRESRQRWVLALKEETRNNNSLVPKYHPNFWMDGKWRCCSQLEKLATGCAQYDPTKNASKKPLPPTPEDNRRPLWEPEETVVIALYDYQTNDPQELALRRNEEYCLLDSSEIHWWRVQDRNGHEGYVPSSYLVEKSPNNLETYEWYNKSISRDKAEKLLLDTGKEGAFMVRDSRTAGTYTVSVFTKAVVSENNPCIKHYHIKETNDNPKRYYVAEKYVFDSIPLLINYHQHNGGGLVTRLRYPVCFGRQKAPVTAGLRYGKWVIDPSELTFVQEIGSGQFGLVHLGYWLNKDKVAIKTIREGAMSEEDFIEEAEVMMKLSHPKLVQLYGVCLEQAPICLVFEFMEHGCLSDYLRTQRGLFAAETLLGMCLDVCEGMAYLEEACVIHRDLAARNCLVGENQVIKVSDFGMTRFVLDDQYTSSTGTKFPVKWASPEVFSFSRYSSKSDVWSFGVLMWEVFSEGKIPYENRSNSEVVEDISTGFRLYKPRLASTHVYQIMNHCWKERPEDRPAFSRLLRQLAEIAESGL

[6] = molecular target: T2, PKCε(h) (Homo sapiens, UniProt Q02156)
T2 sequence (Q02156 1-737): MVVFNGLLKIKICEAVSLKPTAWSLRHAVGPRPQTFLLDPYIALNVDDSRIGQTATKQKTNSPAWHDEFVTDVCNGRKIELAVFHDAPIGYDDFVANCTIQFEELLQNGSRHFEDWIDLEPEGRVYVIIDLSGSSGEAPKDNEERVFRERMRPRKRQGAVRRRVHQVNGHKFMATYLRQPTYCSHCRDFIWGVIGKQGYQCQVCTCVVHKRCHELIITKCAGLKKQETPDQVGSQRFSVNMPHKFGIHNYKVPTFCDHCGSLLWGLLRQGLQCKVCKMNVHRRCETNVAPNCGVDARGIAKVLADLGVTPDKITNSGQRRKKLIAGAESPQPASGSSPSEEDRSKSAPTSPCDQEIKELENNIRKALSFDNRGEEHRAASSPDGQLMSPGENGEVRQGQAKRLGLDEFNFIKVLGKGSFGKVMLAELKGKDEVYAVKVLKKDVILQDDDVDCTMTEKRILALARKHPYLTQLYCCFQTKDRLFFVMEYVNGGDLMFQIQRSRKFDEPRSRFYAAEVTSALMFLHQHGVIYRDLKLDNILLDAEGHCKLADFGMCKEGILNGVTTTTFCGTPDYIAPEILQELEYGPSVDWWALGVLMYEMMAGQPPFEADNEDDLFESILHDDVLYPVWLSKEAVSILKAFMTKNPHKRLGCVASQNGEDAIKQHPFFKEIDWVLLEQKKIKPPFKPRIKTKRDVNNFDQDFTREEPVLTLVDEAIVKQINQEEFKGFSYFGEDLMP

[7] = molecular target: T3, ZAP-70(h) (Homo sapiens, UniProt P43403)
T3 sequence (P43403 1-619): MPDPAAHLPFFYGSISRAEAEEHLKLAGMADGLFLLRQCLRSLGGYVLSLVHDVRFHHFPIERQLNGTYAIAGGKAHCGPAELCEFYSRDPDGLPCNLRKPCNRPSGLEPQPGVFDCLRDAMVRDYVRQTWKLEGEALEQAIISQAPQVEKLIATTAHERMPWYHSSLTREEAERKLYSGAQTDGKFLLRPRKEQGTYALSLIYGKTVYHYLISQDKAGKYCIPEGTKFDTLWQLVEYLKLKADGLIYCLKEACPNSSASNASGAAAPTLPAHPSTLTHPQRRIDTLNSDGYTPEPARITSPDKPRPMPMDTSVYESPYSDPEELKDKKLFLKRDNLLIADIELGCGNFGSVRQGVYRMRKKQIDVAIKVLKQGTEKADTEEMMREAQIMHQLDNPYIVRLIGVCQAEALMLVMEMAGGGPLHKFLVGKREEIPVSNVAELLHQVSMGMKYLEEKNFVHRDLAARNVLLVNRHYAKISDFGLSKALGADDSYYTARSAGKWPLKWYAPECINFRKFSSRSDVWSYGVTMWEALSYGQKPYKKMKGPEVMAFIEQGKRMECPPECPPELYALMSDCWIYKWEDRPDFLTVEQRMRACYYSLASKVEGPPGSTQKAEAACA

[8] = molecular target: PAK2(h) (Homo sapiens, UniProt Q13177)
PAK2(h), sequence (Q13177 whole entry): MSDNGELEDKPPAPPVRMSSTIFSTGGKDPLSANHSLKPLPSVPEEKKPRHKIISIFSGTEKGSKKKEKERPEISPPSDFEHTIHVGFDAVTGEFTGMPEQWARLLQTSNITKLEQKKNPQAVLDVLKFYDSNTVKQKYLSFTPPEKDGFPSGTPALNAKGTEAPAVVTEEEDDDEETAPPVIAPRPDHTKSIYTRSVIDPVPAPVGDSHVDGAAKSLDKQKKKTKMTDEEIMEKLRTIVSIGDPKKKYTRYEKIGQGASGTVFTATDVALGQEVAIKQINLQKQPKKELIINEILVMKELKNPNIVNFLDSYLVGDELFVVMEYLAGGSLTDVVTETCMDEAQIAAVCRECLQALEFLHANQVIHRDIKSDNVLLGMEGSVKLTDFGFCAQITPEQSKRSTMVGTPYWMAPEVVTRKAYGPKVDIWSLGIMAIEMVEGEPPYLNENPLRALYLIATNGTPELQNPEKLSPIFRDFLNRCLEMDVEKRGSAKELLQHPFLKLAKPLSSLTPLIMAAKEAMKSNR

[9] = molecular target: T4, PKCζ(h) (Homo sapiens, UniProt Q05513)
T4 sequence (Q05513 1-592): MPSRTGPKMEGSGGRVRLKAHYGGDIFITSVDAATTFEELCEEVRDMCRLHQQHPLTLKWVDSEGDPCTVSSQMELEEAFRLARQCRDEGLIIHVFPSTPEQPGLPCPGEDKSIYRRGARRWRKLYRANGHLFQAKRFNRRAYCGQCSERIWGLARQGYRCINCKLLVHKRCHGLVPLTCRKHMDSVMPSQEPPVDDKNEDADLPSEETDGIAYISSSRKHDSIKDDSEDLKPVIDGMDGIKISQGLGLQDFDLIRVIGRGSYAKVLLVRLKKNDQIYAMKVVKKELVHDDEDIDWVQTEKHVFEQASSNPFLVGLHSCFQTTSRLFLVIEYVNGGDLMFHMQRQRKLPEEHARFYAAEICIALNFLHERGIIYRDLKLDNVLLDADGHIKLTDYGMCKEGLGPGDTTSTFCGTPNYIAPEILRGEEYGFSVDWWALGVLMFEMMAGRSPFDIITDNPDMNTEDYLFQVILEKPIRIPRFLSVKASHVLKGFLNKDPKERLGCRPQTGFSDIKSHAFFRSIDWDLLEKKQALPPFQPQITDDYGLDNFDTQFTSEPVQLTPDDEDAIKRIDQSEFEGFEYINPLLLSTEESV

Sequence: FAKLAARLYRKALARQLGVAA [MMI-0300]
- % activity [1]: 79%
- % activity [2]: 93%
- % activity [3]: 85%
- % activity [4]: 26%
- % activity [5]: 77%
- % activity [6]: 79%
- % activity [7]: 75%
- % activity [8]: 65%
- % activity [9]: 81%

Sequence: HRRIKAWLKKIKALARQLGVAA [MMI-0500]
- % activity [1]: 20%
- % activity [2]: 46%
- % activity [3]: 53%
- % activity [4]: 22%
- % activity [5]: 7%
- % activity [6]: 23%
- % activity [7]: 1%
- % activity [8]: 44%
- % activity [9]: 7%

Sequence: KAFAKLAARLYRKALARQLGVAA [MMI-0400]
- % activity [1]: 73%
- % activity [2]: 79%
- % activity [3]: 78%
- % activity [4]: 21%
- % activity [5]: 63%
- % activity [6]: 59%
- % activity [7]: 33%
- % activity [8]: 59%
- % activity [9]: 75%

Sequence: YARAAARQARAKALNRQLGVA [MMI-0200]
- % activity [1]: 100%
- % activity [2]: 120%
- % activity [3]: 108%
- % activity [4]: 53%
- % activity [5]: 98%
- % activity [6]: 98%
- % activity [7]: 58%
- % activity [8]: 69%
- % activity [9]: 98%
